The results in this text go back to IntAct's records for PubMed 26221972.

To fix the notation:
B1: T-lymphocyte surface antigen Ly-9 (Homo sapiens), Q9HBG7 (parent)
chain: MVAPKSHTDDWAPGPFSSKPQRSQLQIFSSVLQTSLLFLLMGLRASGKDSAPTVVSGILGGSVTLPLNISVDTEIENVIWIGPKNALAFARPKENVTIMVKSYLGRLDITKWSYSLCISNLTLNDAGSYKAQINQRNFEVTTEEEFTLFVYEQLQEPQVTMKSVKVSENFSCNITLMCSVKGAEKSVLYSWTPREPHASESNGGSILTVSRTPCDPDLPYICTAQNPVSQRSSLPVHVGQFCTDPGASRGGTTGETVVGVLGEPVTLPLALPACRDTEKVVWLFNTSIISKEREEAATADPLIKSRDPYKNRVWVSSQDCSLKISQLKIEDAGPYHAYVCSEASSVTSMTHVTLLIYRRLRKPKITWSLRHSEDGICRISLTCSVEDGGNTVMYTWTPLQKEAVVSQGESHLNVSWRSSENHPNLTCTASNPVSRSSHQFLSENICSGPERNTKLWIGLFLMVCLLCVGIFSWCIWKRKGRCSVPAFCSSQAEAPADTPEPTAGHTLYSVLSQGYEKLDTPLRPARQQPTPTSDSSSDSNLTTEEDEDRPEVHKPISGRYEVFDQVTQEGAGHDPAPEGQADYDPVTPYVTEVESVVGENTMYAQVFNLQGKTPVSQKEESSATIYCSIRKPQVVPPPQQNDLEIPESPTYENFT
partner: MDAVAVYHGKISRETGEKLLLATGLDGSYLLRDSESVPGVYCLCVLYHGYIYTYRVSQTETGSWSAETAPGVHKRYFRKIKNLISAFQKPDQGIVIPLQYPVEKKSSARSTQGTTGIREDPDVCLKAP
B2: T-lymphocyte surface antigen Ly-9 (Homo sapiens), Q9HBG7 (parent)
chain: B1 chain
partner: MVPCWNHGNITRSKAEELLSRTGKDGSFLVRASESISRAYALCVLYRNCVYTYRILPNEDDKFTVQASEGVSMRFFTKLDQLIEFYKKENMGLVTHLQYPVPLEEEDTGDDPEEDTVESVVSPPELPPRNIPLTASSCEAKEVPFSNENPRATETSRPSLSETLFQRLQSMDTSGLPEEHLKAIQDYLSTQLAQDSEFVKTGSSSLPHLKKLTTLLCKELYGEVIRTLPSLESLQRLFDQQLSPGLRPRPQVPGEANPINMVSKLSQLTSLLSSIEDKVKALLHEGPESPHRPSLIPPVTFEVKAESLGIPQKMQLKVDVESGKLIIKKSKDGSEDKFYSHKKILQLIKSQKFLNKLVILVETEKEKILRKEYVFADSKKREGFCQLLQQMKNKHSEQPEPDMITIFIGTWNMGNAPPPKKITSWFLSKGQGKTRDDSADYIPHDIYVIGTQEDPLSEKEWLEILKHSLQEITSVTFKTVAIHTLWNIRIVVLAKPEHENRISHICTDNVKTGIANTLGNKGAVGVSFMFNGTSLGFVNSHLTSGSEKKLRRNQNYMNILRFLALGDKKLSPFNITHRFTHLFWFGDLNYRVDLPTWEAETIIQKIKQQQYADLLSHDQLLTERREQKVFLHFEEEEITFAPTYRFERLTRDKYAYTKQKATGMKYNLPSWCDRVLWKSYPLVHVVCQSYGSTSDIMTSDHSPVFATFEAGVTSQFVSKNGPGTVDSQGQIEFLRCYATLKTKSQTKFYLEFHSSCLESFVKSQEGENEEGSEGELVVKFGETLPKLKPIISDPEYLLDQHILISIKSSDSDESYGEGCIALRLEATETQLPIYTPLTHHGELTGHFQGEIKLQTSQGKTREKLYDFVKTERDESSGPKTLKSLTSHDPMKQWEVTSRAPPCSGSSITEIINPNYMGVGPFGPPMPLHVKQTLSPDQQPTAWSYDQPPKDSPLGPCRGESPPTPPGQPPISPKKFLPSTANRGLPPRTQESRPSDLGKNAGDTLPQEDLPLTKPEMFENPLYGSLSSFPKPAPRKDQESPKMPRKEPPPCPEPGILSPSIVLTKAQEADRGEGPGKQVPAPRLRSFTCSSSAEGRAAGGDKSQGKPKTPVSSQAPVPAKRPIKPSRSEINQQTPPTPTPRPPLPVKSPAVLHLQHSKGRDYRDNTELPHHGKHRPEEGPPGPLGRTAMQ

In the first test the parent is B1. Conditions: with sh21a_human SH2D1A.
With M602V, the “effect of a mutation on the interaction” value was “decreasing interaction”.

The variants in a further test derive from B2. Conditions: with ship1_human INPP5D.
As to M602V, the “effect of a mutation on the interaction” value is listed as “decreasing interaction”.
